Experimental findings from patent US20240392262A1, “TRANSPOSASE AND USES THEREOF” (Poseida Therapeutics, Inc., published 2024) are described below.

What all share (settings): tags: 3xFlag, SV40 NLS
One data set concerns the target T1, PAH2 Left TAL-PBx (synthetic construct).
T1 chain: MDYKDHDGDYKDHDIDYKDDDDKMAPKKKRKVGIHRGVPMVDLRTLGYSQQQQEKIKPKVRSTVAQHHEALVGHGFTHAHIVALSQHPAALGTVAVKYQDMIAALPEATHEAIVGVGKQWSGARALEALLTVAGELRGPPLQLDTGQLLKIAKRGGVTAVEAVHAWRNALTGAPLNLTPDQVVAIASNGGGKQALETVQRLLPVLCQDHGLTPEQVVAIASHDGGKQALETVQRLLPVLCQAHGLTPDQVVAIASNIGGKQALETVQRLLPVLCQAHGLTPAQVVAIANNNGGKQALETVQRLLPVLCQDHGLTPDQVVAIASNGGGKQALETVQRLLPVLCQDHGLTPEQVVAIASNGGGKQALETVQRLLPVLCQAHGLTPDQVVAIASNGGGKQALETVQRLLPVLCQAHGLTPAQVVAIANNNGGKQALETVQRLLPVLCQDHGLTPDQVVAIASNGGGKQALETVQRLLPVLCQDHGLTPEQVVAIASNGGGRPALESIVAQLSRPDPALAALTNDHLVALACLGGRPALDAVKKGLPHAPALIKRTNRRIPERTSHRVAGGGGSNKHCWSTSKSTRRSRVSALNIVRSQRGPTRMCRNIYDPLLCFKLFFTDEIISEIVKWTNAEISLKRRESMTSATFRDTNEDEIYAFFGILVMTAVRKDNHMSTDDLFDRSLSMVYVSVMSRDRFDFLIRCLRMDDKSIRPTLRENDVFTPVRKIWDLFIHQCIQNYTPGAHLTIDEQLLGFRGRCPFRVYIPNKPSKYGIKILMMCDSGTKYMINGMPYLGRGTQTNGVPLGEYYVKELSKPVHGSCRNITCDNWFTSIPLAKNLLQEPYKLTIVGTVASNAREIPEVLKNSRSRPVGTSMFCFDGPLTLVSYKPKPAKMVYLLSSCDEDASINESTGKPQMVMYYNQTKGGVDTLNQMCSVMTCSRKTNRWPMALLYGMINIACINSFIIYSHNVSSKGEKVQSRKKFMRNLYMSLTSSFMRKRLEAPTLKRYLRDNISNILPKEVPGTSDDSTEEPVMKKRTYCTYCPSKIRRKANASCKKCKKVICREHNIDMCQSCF
In words: cell_activity; left only.

The target in another data set is T2, PAH2 Right TAL-PBx (synthetic construct).
T2 chain: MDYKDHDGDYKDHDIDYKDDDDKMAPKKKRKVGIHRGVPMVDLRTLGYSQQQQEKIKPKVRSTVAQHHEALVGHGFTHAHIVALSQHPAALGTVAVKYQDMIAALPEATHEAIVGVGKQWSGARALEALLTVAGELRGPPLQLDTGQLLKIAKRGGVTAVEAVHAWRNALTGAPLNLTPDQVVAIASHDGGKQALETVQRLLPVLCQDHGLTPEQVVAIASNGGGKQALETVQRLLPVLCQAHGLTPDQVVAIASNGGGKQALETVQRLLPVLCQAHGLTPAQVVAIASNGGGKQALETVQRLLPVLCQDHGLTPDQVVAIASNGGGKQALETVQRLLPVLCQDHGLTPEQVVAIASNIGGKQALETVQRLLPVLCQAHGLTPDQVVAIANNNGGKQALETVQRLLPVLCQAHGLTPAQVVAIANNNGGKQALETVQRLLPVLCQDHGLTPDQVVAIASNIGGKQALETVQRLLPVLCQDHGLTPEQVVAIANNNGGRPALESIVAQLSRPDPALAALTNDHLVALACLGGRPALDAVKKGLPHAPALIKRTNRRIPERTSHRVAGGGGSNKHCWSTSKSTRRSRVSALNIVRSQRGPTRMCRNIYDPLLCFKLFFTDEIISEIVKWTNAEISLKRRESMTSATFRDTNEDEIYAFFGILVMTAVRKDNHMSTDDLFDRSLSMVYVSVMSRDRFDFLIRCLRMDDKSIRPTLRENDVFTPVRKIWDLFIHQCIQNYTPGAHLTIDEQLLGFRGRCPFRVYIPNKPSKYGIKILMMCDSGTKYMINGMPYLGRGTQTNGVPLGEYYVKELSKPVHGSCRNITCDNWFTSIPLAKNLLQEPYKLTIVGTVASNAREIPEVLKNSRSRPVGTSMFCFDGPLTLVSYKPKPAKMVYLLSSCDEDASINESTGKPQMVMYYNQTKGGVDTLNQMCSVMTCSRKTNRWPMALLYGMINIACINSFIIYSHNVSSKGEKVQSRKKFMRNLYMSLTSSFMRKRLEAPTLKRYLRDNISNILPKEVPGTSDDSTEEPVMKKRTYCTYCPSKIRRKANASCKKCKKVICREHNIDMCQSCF
The experiment in a line: cell_activity; right only.

For the next data set, the target named is T3, PAH3 Left TAL-PBx (synthetic construct).
T3 chain: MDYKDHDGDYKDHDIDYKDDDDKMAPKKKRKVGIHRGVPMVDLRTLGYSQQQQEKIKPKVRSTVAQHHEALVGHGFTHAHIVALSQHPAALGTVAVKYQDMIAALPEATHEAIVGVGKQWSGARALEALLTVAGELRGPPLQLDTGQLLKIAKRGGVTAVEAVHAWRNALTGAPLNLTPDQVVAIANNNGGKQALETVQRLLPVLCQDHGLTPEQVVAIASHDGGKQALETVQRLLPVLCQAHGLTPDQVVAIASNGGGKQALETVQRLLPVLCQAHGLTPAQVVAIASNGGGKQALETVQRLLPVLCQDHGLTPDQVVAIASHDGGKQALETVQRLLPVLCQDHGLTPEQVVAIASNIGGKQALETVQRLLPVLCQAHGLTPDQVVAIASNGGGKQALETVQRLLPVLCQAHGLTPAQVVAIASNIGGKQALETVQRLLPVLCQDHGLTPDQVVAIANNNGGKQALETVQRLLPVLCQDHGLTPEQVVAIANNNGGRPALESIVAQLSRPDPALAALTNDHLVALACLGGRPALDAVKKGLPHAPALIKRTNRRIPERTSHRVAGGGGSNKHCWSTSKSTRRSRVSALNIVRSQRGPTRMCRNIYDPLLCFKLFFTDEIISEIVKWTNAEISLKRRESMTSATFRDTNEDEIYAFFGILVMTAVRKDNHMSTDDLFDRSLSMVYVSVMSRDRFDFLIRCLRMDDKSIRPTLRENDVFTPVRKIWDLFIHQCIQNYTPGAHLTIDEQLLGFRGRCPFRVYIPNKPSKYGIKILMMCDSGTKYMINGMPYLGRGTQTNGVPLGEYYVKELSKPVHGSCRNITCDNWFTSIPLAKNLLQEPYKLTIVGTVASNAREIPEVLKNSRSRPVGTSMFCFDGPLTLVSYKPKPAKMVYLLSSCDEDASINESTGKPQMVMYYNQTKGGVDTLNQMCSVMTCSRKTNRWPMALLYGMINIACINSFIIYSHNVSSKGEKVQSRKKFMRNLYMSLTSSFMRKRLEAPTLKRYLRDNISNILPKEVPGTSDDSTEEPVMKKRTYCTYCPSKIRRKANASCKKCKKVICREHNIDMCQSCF
In words: cell_activity; left only.

For a further data set, the target named is T4, PAH3 Right TAL-PBx (synthetic construct).
T4 chain: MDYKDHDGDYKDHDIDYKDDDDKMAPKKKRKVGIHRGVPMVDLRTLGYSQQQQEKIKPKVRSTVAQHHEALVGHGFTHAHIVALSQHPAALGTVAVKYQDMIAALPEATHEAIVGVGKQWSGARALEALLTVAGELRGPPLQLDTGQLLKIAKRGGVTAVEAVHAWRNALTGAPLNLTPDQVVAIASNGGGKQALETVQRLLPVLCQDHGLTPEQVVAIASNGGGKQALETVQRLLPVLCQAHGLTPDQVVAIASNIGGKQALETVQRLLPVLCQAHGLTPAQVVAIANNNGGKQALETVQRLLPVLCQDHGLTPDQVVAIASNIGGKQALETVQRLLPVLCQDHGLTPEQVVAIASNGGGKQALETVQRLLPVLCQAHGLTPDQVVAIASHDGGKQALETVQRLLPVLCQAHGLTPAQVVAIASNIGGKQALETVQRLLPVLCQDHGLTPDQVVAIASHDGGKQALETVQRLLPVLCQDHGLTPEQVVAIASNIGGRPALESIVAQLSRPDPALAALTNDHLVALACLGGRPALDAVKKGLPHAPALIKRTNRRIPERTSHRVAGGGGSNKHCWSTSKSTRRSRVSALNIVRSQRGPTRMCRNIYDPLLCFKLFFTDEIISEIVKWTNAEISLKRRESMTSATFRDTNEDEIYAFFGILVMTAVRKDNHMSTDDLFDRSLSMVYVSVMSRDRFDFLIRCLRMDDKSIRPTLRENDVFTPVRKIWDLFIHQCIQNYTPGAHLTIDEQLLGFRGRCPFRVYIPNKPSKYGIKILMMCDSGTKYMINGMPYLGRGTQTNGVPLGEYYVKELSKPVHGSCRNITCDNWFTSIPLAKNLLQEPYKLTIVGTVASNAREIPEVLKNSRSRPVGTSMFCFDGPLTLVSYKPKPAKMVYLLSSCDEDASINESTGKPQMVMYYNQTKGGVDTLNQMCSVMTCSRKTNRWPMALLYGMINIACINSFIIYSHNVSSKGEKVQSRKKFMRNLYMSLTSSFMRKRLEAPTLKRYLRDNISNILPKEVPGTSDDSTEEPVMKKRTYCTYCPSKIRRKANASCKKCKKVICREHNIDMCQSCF
The experiment in a line: cell_activity; right only.

B1: PAH2 target (dsDNA)
DNA 1: TTCAGTTTGTTATATATGTGTCTATTAAGTTAGATTGTGAGCTCCTAAAAGA
DNA 2: TCTTTTAGGAGCTCACAATCTAACTTAATAGACACATATATAACAAACTGAA
With B1, the figures for the activity in the data set with PAH2 Left TAL-PBx and with PAH2 Right TAL-PBx were 8.8 % GFP+ and 7 % GFP+, respectively.

B2: PAH3 target (dsDNA)
DNA 1: TGCTTCATAGGGTAGTTCTAAAGATTAAATCACTTAATGCATGTGATCTAAA
DNA 2: TTTAGATCACATGCATTAAGTGATTTAATCTTTAGAACTACCCTATGAAGCA
In the case of B2, the activity with PAH3 Left TAL-PBx turned out to be 6.8 % GFP+; in the data set with PAH3 Right TAL-PBx, 5.7 % GFP+.
